Numbering of substitutions follows the chain as printed.
B1: E08 (KnotBody with EET 5-3 framing) (scFv, V domains shown)
VH: EVQLVESGGGLVRPGGSLRLSCAASGFTFSSYAMSWVRQAPGKGLEWVSAISGSGGSTYYADSVKGRFTISRDNTKNSLYLQMTSLRADDTAFYYCVKDFGPGYGTGWFDYWGPGTLVTVSS
VL: AVNWYQQLPGKAPKLLIYAAGGCGPNGFCGSGSDGGVCPRILMRCKQDSDCLAGCGIQSGIPERFSGSKSGTSASLAISGLRSEDEADYYCAAWDDNLSGYVFGTGTKLTVLG
B2: E05 (KnotBody with EET 5-3 framing) (scFv, V domains shown)
VH: B1 VH
VL: B1 VL with I57A, R82Q, D88H, N97S, S99N, L109V
B3: F01 (KnotBody with EET 5-3 framing) (scFv, V domains shown)
VH: B1 VH
VL: YLNWYQQKPGKAPKLLIDAAGECGPNGFCGSGSDGGVCPRINMRCKQDSDCLAGCGRDSGVPSRFSGSGSGTDFTLTISSLQPEDFATYYCQQSYSTPWTFGQGTKVEIKR
B4: E03 (KnotBody with EET 5-3 framing) (scFv, V domains shown)
VH: B1 VH
VL: AVNWYQQLPGKAPKLLIYAAGGCGPNGFCGSGSDGGVCPRILMRCKQDSDCLAGCGRNSGIPERFSGSKSGHTATLTISRVEAGDEADYYCQVWDSSSDHVLFGGGTKLTVLG
B5: F07 (KnotBody with EET 5-3 framing) (scFv, V domains shown)
VH: B1 VH
VL: B1 VL with I57G, I61V, E63D, G80R, R82Q, N97S, S99N, G100A, L109V
B6: E09 (KnotBody with EET 5-3 framing) (scFv, V domains shown)
VH: B1 VH
VL: B1 VL with I57T, N97S, S99R, G100A, K108Q
B7: F03 (KnotBody with EET 5-3 framing) (scFv, V domains shown)
VH: B1 VH
VL: B1 VL with K11R, S33G, I57A, Q58H, N97S, S99N, Y101W, T105G, L109V
B8: G11 (KnotBody with EET 5-3 framing) (scFv, V domains shown)
VH: B1 VH
VL: AVNWYQQLPGKAPKLLIYAAGGCGPNGFCGSGSDGGVCPRILMRCKQDSDCLAGCGQSSGVSDRFSGSKSGTSATLDITGLQTGDEADYYCGTWDNSLSVGVFGGGTKVTVLG

Target: trypsin
Test: monoclonal phage ELISA

Compared with B1, B2 is lower in ELISA signal: 121000 for the first, 119000 for the second.

Going from B3 to B4, the ELISA signal falls from 102000 to 82500.

First: B5
Second: B6
The ELISA signal of the first is higher: 72800 for the first, 70300 for the second.

First: B7
Second: B8
The ELISA signal of the first is higher: 68000 for the first, 27600 for the second.
